Data taken from PMC12830901.

Tests used:
Assay in all cases: split reporter (BiFC, NanoBiT); receptor-SmBiT and LgBiT-mini-G, LgBiT-mini-GΔα5 or LgBiT-β-arrestin transiently co-transfected in HEK293T; live cells 48 h after transfection; NanoBiT PPI system (Promega), luminescence normalised by the expression of both constructs; in the mutant and ΔHA panels the mini-GΔα5 signal was subtracted and results given as a percentage of the reference construct
[1] = target: ADGRL4-CTF1 S414A (human) (UniProt Q9HBW9)
[2] = target: ADGRL4-CTF1 H408A (human) (UniProt Q9HBW9)
[3] = target: ADGRL4-CTF1 L412A (human) (UniProt Q9HBW9)
[4] = target: ADGRL4-CTF1 I411A (human) (UniProt Q9HBW9)
[5] = target: ADGRL4-CTF1 F409A (human) (UniProt Q9HBW9)

reduction of Gq activity, percent of wild-type CTF1 [1]: > 50%
reduction of Gq activity, percent of wild-type CTF1 [2]: > 50%
reduction of Gq activity, percent of wild-type CTF1 [3]: > 50%
reduction of Gq activity, percent of wild-type CTF1 [4]: > 50%
Gq activity, percent of wild-type CTF1 (% of wild-type CTF1) [5]: 12
Substance: LgBiT-mini-Gq (mini-Gs/q version 70)
